Data on 26 sequences can be found in the supplement of paper PMC12764529.

A short description of data set [1]: folding stability dG unfold from trypsin proteolysis; higher = more stable. In outline:
(§1)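 Designed mini-proteins with no cysteine and under 80 residues were kept only if AlphaFold2 dimer inter-PAE was above 15. In a PA-tagged cDNA display construct, they were digested with trypsin and chymotrypsin and then sequenced. K50 was inferred by Bayesian fitting of counts, and unfolding free energy was derived per protease or combined against a sequence-predicted unfolded-state K50 and a shared folded-state K50.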

A short description of data set [2]: folding stability dG unfold from chymotrypsin proteolysis; higher = more stable. In outline:
as §1

Data set [3] can be described thus: folding stability dG unfold (combined trypsin and chymotrypsin); higher = more stable. In outline:
as §1

± gives the half width of the 95% confidence interval.

For the sequence “SAGGSAGGSEVKVLVYPPKGPPRLFADDVPIETLVAQFTAEDPPEPLVLVTKEEAEKLGFPLESAGGSAGGS [r12_379_TrMRF]”, the “folding stability dG unfold” value in data set [1] is 0.435 ± 0.047 kcal/mol; in data set [2] it was 0.15 ± 0.14 kcal/mol; in data set [3], 0.27 ± 0.22 kcal/mol.

Turning to “SAGGSAGGSEVLEVVLPRPDGRLVLLRVDPEGRLALVVFPDGSVRVFEVESPEEAVQRVLDAESAGGSAGGS [r12_866_TrMRF]”, the “folding stability dG unfold” value was 1.92 ± 0.054 kcal/mol in data set [1], 2.6 ± 0.034 kcal/mol in data set [2] and 2.41 ± 0.07 kcal/mol in data set [3].

Turning to “SAGGSAGGSEWTIESIRPRPDGSLIARVRPEGVNVSVEVEFDTLEELLAFAKLLEELGGKVTGSAGGSAGGS [r20_177_TrMRF]”, the “folding stability dG unfold” value was found to be 1.62 ± 0.04 kcal/mol in data set [1], 1.98 ± 0.023 kcal/mol in data set [2] and 1.82 ± 0.058 kcal/mol in data set [3].

In the case of “SAGGSAGGSEWYEIRIPGIKGSADDLVEDIQDWFPAPNMKISIEEVEPMGDGLPGMTIKLRVNSAGGSAGGS [r12_348_TrROS]”, the “folding stability dG unfold” value in data set [1] stood at 0.227 ± 0.033 kcal/mol; in data set [2], 0.361 ± 0.11 kcal/mol; in data set [3] it was 0.381 ± 0.054 kcal/mol.

For the sequence “SAGGSAGGSEYRIELELFRTPEGGLVVPVRIYPPDGGRFEGPASLEELVERFGFSFPPLLELLSAGGSAGGS [r20_235_TrMRF]”, the figures for the “folding stability dG unfold” value in data set [1], in data set [2] and in data set [3] were 1.58 ± 0.035 kcal/mol, 2.54 ± 0.12 kcal/mol and 2.15 ± 0.092 kcal/mol, respectively.

Consider “SAGGSAGGSFEILEVHPVKDGWLMIVVRTPGKMKVITIPPDDLDEIPGLDDIAIFPVKDGEPISAGGSAGGS [r12_343_TrROS]”, for which the “folding stability dG unfold” value in data set [1] turned out to be 1.28 ± 0.049 kcal/mol; in data set [2] it was 1.65 ± 0.12 kcal/mol; in data set [3], 1.38 ± 0.21 kcal/mol.

For “SAGGSAGGSFKDVPPGLKPLREEENVLFYQLPDGSYLVLVKEGDKIKKIKASKSTSIEEAIKKSAGGSAGGS [r12_605_JUSTAS]”, the “folding stability dG unfold” value is 0.44 ± 0.11 kcal/mol in data set [1], 2.09 ± 0.041 kcal/mol in data set [2] and 1.61 ± 0.16 kcal/mol in data set [3].

Consider “SAGGSAGGSFPLDEIRKFAKKLGNPFIEIEPVKPHVYRIKIYNKKNGKKKEFPIYLDEDGKIMSAGGSAGGS [r12_170_TrROS]”, for which the “folding stability dG unfold” value in data set [1] amounted to 0.992 ± 0.053 kcal/mol; in data set [2] it was 1.27 ± 0.15 kcal/mol; in data set [3], 1.16 ± 0.13 kcal/mol.

For “SAGGSAGGSFRIPKGDPNMKIRIIFQWPNGQPMPMEYTVTPDGTFKINIPGMPPNRIESIEIWSAGGSAGGS [r12_477_TrROS]”, the “folding stability dG unfold” value in data set [1] came to 1.98 ± 0.17 kcal/mol; in data set [2], 1.68 ± 0.26 kcal/mol; in data set [3] it was 1.95 ± 0.21 kcal/mol.

For “SAGGSAGGSGGMTPTSRDYVLPNGEKLAVEETFTFPDGSSVTKVLDPKTGTTTTLPASTIASASAGGSAGGS [r12_488_JUSTAS]”, the “folding stability dG unfold” value in data set [1] was determined as 0.451 ± 0.032 kcal/mol; in data set [2], 0.321 ± 0.13 kcal/mol; in data set [3], 0.394 ± 0.11 kcal/mol.

As for “SAGGSAGGSGGVIDIPVYGEDGEKFIASAPKEVIEKAIKEGKPIEVYVVDDGKIIKKFTISTGSAGGSAGGS [r12_991_TrMRF]”, the “folding stability dG unfold” value in data set [1] was -0.0801 ± 0.092 kcal/mol; in data set [2] it was -0.0658 ± 0.17 kcal/mol; in data set [3], 0.0354 ± 0.12 kcal/mol.

Take “SAGGSAGGSGKPLLLVRLKIRNKETGEEETVVLEADSLDEALARLPPGAEIVSIEVVRLDLPPSAGGSAGGS [r12_208_TrROS_Hall]”: the “folding stability dG unfold” value in data set [1] is 4.34 ± 0.16 kcal/mol; in data set [2], 5.38 ± 0.075 kcal/mol; in data set [3], 5.34 ± 0.13 kcal/mol.

Consider “SAGGSAGGSGKVLVLPLPGGTVEEVKEIAKEIKEKYPNAKVTTEVFPTPEGDLVAVVTLENPESAGGSAGGS [r12_425_TrMRF]”, for which the “folding stability dG unfold” value in data set [1] is 0.307 ± 0.11 kcal/mol; in data set [2], -0.0724 ± 0.087 kcal/mol; in data set [3], 0.0277 ± 0.22 kcal/mol.

With “SAGGSAGGSGLEILEEREAVFPLHGLVVKREVVVRSPDGVPLVFVEVEAHPELLPLVERLFERSAGGSAGGS [r12_457_TrMRF]”, the “folding stability dG unfold” value in data set [1] was 0.212 ± 0.054 kcal/mol; in data set [2] it was -0.0155 ± 0.13 kcal/mol; in data set [3], 0.138 ± 0.099 kcal/mol.

In the case of “SAGGSAGGSGLPIVVQEDGTLVLRREGDGTAAFDVVPLEEFERLPEEFLESLPASALPDPLPLSAGGSAGGS [r12_793_JUSTAS]”, the figures for the “folding stability dG unfold” value in data set [1], in data set [2] and in data set [3] were -0.428 ± 0.2 kcal/mol, 1.41 ± 0.11 kcal/mol and 0.882 ± 0.1 kcal/mol, respectively.

Regarding “SAGGSAGGSGMKRTATVVERDPATGRVLLEITDGSKTTTRVLEGPPSGRGAASSPEIDSLSLLSAGGSAGGS [r12_421_JUSTAS]”, the “folding stability dG unfold” value in data set [1] was -1.16 ± 0.29 kcal/mol; in data set [2] it was -0.169 ± 0.12 kcal/mol; in data set [3] it was -0.423 ± 0.098 kcal/mol.

Regarding “SAGGSAGGSGMTLEEIAERLKEEYNAPEVKVTRDPSKPVYTVTVTLADGSTKTYTIYVPEELGSAGGSAGGS [r12_114_JUSTAS]”, the “folding stability dG unfold” value in data set [1] came to 2.63 ± 0.047 kcal/mol; in data set [2], 3.73 ± 0.051 kcal/mol; in data set [3], 3.44 ± 0.092 kcal/mol.

Consider “SAGGSAGGSGNATVMLMFPIEISITVMEWDNGKPKMKTQEIEIWVMIMIPVPPPPDPGDPEWNSAGGSAGGS [r12_713_TrROS]”, for which the “folding stability dG unfold” value was determined as 2.84 ± 0.076 kcal/mol in data set [1], 4.09 ± 0.071 kcal/mol in data set [2] and 3.76 ± 0.11 kcal/mol in data set [3].

As to “SAGGSAGGSGPMDDPVPPRFSVETSVSPVALPPEFVAYVAAHPEEVDAVYTTTVVVLEEGPAGSAGGSAGGS [r12_196_JUSTAS]”, the “folding stability dG unfold” value in data set [1] is -0.559 ± 0.075 kcal/mol; in data set [2], -0.482 ± 0.79 kcal/mol; in data set [3] it was -0.449 ± 0.22 kcal/mol.

With “SAGGSAGGSGPVLLVRVRPDGTREILDVLPPDEPVENLPAGEFREFRLIPTESLEDALRKALASAGGSAGGS [r12_452_TrMRF]”, the “folding stability dG unfold” value in data set [1] was -0.44 ± 0.54 kcal/mol; in data set [2] it was 0.304 ± 0.37 kcal/mol; in data set [3], -0.00342 ± 0.21 kcal/mol.

Consider “SAGGSAGGSGSLEKVFTGENKIITIKYLPDGKVIITLHDPSTPKPIAVIEAKPSEIEEILKKESAGGSAGGS [r20_129_TrMRF]”, for which the entries for the “folding stability dG unfold” value in data set [1], in data set [2] and in data set [3] were 1.24 ± 0.12 kcal/mol, 1.86 ± 0.076 kcal/mol and 1.76 ± 0.13 kcal/mol, respectively.

On to “SAGGSAGGSGSMLPITTVTPTPDGVWKITYELPDGSTRTITVPPDDLSLSGPPSSSGSSAALASAGGSAGGS [r20_194_JUSTAS]”, for which the results for the “folding stability dG unfold” value in data set [1], in data set [2] and in data set [3] were 1.28 ± 0.091 kcal/mol, 0.041 ± 0.31 kcal/mol and 0.764 ± 0.15 kcal/mol, respectively.

As to “SAGGSAGGSGSMSTPVTEEITLTLTRTTEDGTEVVITIKVKVVKDPTSDVVTVTEVLSETVEPSAGGSAGGS [r12_358_JUSTAS]”, the “folding stability dG unfold” value in data set [1] came out at 2.18 ± 0.051 kcal/mol; in data set [2], 2.54 ± 0.039 kcal/mol; in data set [3], 2.37 ± 0.099 kcal/mol.

As for “SAGGSAGGSGSVEFETDLKDPNIRKAIEEALKEGKKTAVIPFPDGAEGRIVEVEGDKVRVEISSAGGSAGGS [r12_334_TrMRF]”, the results for the “folding stability dG unfold” value in data set [1], in data set [2] and in data set [3] were 0.0322 ± 0.15 kcal/mol, 1.29 ± 0.099 kcal/mol and 0.838 ± 0.12 kcal/mol, respectively.

For the sequence “SAGGSAGGSGTSTKINILLPVKPGETVKLKVEVNLNSKKVLFYVDVKKNPVGNYLSATFTVTGSAGGSAGGS [r12_136_TrMRF]”, the “folding stability dG unfold” value amounted to 2.75 ± 0.3 kcal/mol in data set [1], 4.42 ± 0.12 kcal/mol in data set [2] and 3.85 ± 0.23 kcal/mol in data set [3].

With “SAGGSAGGSGVLVRITATHPDGSTEEVLEIEVPNDENDPAKLKAIAEELAKKAGMKNIKIELLSAGGSAGGS [r12_569_JUSTAS]”, the “folding stability dG unfold” value in data set [1] came out at 1.95 ± 0.047 kcal/mol; in data set [2] it was 2.49 ± 0.027 kcal/mol; in data set [3], 2.31 ± 0.07 kcal/mol.
